# Numbered stars: 1 amine (or outer) side, 2 acyl side, 3 side chain; on linkers, the order of the positions; unused ones are H or OH. Square brackets hold non-standard residues; d marks the D form. Peptide text beside a SMILES is read from it. * marks the point of attachment. X1 = CCCC[C@@H](C(=O)[*:2])n1cc([C@H](Cc2c[nH]c3ccccc23)N[*:1])nn1; X4 = C[C@H](N[*:1])c1cn([C@@H](Cc2ccc(O)cc2)C(=O)[*:2])nn1; DOTA = O=C(O)CN1CCN(CC(=O)O)CCN(CC(=O)*)CCN(CC(=O)O)CC1; X3 = O=C([C@H](Cc1c[nH]c2ccccc12)n1cc(CN[*:1])nn1)[*:2]; X2 = O=C(Cn1cc([C@H](Cc2ccc(O)cc2)N[*:1])nn1)[*:2]; Nle = CCCC[C@H](N)C(=O)O
# Columns and labels:
# Fig. 4 = experiment: Fig. 4
# Protocol: (§1) Table printed on a drawing sheet, Fig. 4
# (§2) Footnotes: Significant improvement / Significant drawback
# First reader's note: Light grey shading of a cell marks a significant improvement and dark grey shading a significant drawback; logD was measured at pH 7.4.
# Blood plasma stability = type: in vitro ADME; conditions: human blood plasma, 37° C.; for at least more than 2 hours; FIG. 3
# Protocol: The ^177Lu-labelled compounds were diluted with 0.9% NaCl to a concentration of 3.75 μM and incubated (375 pmol, 100 μL, 7.5-12 MBq) in nitrogen-flushed fresh human blood plasma (1.5 mL) at 37° C. At different time points (0.5, 1, 2, 4, 6 and 24 h) aliquots (75 μL) were taken and the proteins were precipitated in CH3CN (100 μL) and centrifuged (2 min, 14680 rpm, rt). The supernatant (75 μL) was diluted with water (75 μL) and analyzed by γ-HPLC.
# CCK2R = CCK2R (Homo sapiens, UniProt P32239); experiment: IC50 (nM); set-up: Human Medullary Thyroid Cancer cells (MZ-CRCl) expressing the CCK2R; endogenous in cells; host or cells: MZ-CRC1 human medullary thyroid cancer cells
# Protocol: as §1
# Head of the field: IC50 (nM)
# as §2
# First copying reader's note: Light grey shading of a cell marks a significant improvement and dark grey shading a significant drawback; logD was measured at pH 7.4.
# Where the first naming reader finds the target: patent_title: MINIGASTRIN DERIVATES, IN […] FOR USE IN CCK2 RECEPTOR POSITIVE TUMOUR DIAGNOSIS AND/OR TREATMENT
# [1] = tested on: CCK-2 receptor positive tumours; conditions: in vivo; cited from earlier work
# CCK2R, sequence (P32239 whole entry, looked up): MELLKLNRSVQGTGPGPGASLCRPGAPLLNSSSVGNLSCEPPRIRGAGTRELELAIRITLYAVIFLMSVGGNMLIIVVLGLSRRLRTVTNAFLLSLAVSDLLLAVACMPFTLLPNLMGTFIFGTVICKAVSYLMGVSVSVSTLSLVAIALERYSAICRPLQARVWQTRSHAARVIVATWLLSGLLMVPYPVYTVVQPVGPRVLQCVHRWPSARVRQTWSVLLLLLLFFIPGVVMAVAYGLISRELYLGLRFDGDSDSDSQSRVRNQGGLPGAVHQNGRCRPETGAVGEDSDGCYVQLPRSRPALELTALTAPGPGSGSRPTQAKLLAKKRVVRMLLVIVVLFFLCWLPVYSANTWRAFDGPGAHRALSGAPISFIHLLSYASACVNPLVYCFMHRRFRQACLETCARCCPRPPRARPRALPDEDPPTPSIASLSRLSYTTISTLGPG
Molecule,Plasma half live (Fig. 4) [h],other results
"CCCC[C@H](NC(=O)[C@H](Cc1c[nH]c2ccccc12)NC(=O)CNC(=O)[C@H](Cc1ccc(O)cc1)n1cc([C@H](C)NC(=O)[C@@H](CCC(=O)O)NC(=O)CN2CCN(CC(=O)O)CCN(CC(=O)O)CCN(CC(=O)O)CC2)nn1)C(=O)N[C@@H](CC(=O)O)C(=O)N[C@@H](Cc1ccccc1)C(N)=O [DOTA[Nle15, Ala11-(Tz)-Tyr12]-MG11] ({DOTA}-[dE][X4]GW[Nle]DF-NH2)",16.7,
"CCCC[C@H](NC(=O)[C@H](Cc1c[nH]c2ccccc12)n1cc(CNC(=O)[C@H](Cc2ccc(O)cc2)NC(=O)[C@H](C)NC(=O)[C@@H](CCC(=O)O)NC(=O)CN2CCN(CC(=O)O)CCN(CC(=O)O)CCN(CC(=O)O)CC2)nn1)C(=O)N[C@@H](CC(=O)O)C(=O)N[C@@H](Cc1ccccc1)C(N)=O [DOTA[Nle15, Gly13-(Tz)-Trp14]-MG11] ({DOTA}-[dE]AY[X3][Nle]DF-NH2)",4.3,
"CCCC[C@@H](C(=O)N[C@@H](CC(=O)O)C(=O)N[C@@H](Cc1ccccc1)C(N)=O)n1cc([C@H](Cc2c[nH]c3ccccc23)NC(=O)CNC(=O)[C@H](Cc2ccc(O)cc2)NC(=O)[C@H](C)NC(=O)[C@@H](CCC(=O)O)NC(=O)CN2CCN(CC(=O)O)CCN(CC(=O)O)CCN(CC(=O)O)CC2)nn1 [DOTA[Nle15, Trp14-(Tz)-Nle15]-MG11] ({DOTA}-[dE]AYG[X1]DF-NH2)",>24,
"CCCC[C@H](NC(=O)[C@H](Cc1c[nH]c2ccccc12)NC(=O)Cn1cc([C@H](Cc2ccc(O)cc2)NC(=O)[C@H](C)NC(=O)[C@@H](CCC(=O)O)NC(=O)CN2CCN(CC(=O)O)CCN(CC(=O)O)CCN(CC(=O)O)CC2)nn1)C(=O)N[C@@H](CC(=O)O)C(=O)N[C@@H](Cc1ccccc1)C(N)=O [DOTA[Nle15, Tyr^12-(Tz)-Gly^13]-MG11, DOTA[Nle15, Tyr12-ψ[Tz]-Gly13]-MG11] ({DOTA}-[dE]A[X2]W[Nle]DF-NH2)",,peptides remaining stable in plasma (Blood plasma stability): more than 60%
"CCCC[C@H](NC(=O)[C@H](Cc1c[nH]c2ccccc12)NC(=O)CNC(=O)[C@H](Cc1ccc(O)cc1)NC(=O)[C@H](C)NC(=O)[C@@H](CCC(=O)O)NC(=O)CN1CCN(CC(=O)O)CCN(CC(=O)O)CCN(CC(=O)O)CC1)C(=O)N[C@@H](CC(=O)O)C(=O)N[C@@H](Cc1ccccc1)C(N)=O [DOTA[Nle15]-MG11, DOTA-DGlu-Ala-Tyr-Gly-Trp-Nle-Asp-Phe-NH2] ({DOTA}-[dE]AYGW[Nle]DF-NH2)",,IC50 (CCK2R): 16.1 nM
DOTA-DGlu-DGlu-DGlu-DGlu-DGlu-DGlu-Ala-Tyr-Gly-Trp-Nle-Asp-Phe-NH2 [PP-F11N],,tumour-kidney-ratio [1]: excellent
